Patent publication US20110033951, “ASSAY METHOD AND KIT FOR NUCLEIC ACID BINDING PROTEIN” (Hiroshima University, published 2011)

Tests used:
NF-kappaB p50 [1] = target: T1, NF-kappaB p50 (Homo sapiens, UniProt P19838 P19838:1-433); test: competition; SP1 decoy did not affect NF-kB/DNA signal; conditions: tags: Promega; chain copies: 2
Protocol: (§1) A mixed solution of 31F/42 and 05C/08 (40 fmol each), 800 fmol of the decoy (NF01/02 or SP01/02), a solution of a protein mixture (2.5 pmol of recombinant human SP1 and 0.125 pmol of recombinant human NFκB p50) were mixed into a reaction solution (10 mM HEPES-NaOH pH 7.9, 50 mM KCl, 0.1 mM EDTA, 5 mM DTT, 10% glycerol, 0.05% IGEPAL CA-630, 15 μL) and reacted at 25° C. for 30 minutes. A mixed solution of 32D/41 and 06B/07 (80 fmol each) was added thereto, and 50 μL of the resulting mixture was then reacted at 25° C. for 120 minutes. The fluorescence values of fluorescein and Cy3 were measured using a fluorescence plate reader Ultra (Tecan Group Ltd.). The fluorescein was excited at 485 nm, and its fluorescence was measured at 535 nm. The Cy3 was excited at 535 nm and its fluorescence was measured at 595 nm.

SP1 [2] = target: T2, SP1 (Homo sapiens, UniProt P08047 P08047:2-785); test: competition; decoy lowered only SP1/DNA signal; conditions: tags: Promega
Protocol: as §1

SP1 [3] = target: T2, SP1; test: competition; NF-kB decoy did not affect SP1/DNA signal; conditions: tags: Promega
Protocol: as §1

NF-kappaB p50 [4] = target: T1, NF-kappaB p50; test: competition; decoy restored strand exchange; conditions: tags: Promega; chain copies: 2
Protocol: (§2) The fluorescence value was measured using a real-time PCR apparatus Rotor-Gene 2000 (Corbett Life Science).

NF-kappaB p50 [5] = target: T1, NF-kappaB p50; test: competition; decoy without NF-kB site did not compete; conditions: tags: Promega; chain copies: 2
Protocol: as §2

T1 sequence (P19838 1-433, one chain of several): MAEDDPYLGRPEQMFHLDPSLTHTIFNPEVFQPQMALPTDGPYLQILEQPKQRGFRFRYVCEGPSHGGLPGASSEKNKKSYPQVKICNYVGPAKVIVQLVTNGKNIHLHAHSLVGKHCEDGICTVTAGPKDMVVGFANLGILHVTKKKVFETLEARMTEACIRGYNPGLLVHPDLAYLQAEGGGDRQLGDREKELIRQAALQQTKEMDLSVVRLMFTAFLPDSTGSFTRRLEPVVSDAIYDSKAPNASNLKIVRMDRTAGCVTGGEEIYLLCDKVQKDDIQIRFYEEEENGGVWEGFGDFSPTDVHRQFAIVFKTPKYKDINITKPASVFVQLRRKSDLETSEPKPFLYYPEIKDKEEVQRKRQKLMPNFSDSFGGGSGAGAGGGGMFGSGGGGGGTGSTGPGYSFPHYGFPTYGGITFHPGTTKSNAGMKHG
T2 sequence (P08047 2-785, one chain of several): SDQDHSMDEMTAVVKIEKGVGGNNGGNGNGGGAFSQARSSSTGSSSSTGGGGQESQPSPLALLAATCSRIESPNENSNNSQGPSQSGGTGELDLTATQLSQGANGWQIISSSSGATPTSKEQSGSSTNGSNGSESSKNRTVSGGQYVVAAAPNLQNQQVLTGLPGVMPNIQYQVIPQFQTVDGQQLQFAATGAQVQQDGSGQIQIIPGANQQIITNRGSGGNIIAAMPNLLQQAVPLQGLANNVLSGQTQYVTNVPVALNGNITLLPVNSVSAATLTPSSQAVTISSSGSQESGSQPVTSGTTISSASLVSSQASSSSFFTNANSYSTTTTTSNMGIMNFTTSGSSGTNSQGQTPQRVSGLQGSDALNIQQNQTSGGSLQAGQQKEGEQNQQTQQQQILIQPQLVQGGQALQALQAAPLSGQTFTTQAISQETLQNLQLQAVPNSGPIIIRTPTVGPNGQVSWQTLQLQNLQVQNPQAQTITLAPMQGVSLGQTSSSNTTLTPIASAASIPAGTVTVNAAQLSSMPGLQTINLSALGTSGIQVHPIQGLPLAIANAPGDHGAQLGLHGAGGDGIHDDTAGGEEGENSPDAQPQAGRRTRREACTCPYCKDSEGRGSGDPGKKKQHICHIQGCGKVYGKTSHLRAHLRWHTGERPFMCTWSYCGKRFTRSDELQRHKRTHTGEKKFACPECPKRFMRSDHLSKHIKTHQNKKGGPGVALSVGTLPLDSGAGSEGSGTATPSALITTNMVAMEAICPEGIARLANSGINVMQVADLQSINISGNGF

B1: SP01/02 decoy (dsDNA)
DNA 1: TCGAGCGGGGCGGGGCGACGAA
DNA 2: TTCGTCGCCCCGCCCCGCTCGA
B1: no binding (NF-kappaB p50 [1]); binds (SP1 [2]).

B2: NFcpt decoy (NF01/02) (dsDNA)
DNA 1: GCACTAGGGACTTTCCGCCACG
DNA 2: CGTGGCGGAAAGTCCCTAGTGC
B2: no binding (SP1 [3]); binds (NF-kappaB p50 [4]).

B3: APcpt decoy (dsDNA)
DNA 1: GGTGTCATGAGTCAGCTCGGAG
DNA 2: CTCCGAGCTGACTCATGACACC
B3: no binding (NF-kappaB p50 [5]).
